# Data: patent US9212226B2, “Amino acid sequences directed against CXCR4 and other GPCRs and compounds comprising the same” (Ablynx N.V., priority 2008, dated 2015)
# Molecular target: CXCR4 (Homo sapiens, UniProt P61073)
# Assay: [125I]-238D4 competition binding on membranes from HEK293T cells transiently expressing CXCR4
# Details: membranes from HEK293T cells transiently expressing CXCR4; mean ± S.E.M.
# Description: HEK293T cells were maintained at 37° C. in a humidified 5% CO2, 95% air atmosphere in Dulbecco's modified Eagle's medium (DMEM) containing 2 mM L-glutamine, 50 IU/ml penicillin, 50 μg/ml streptomycin, and 10% (v/v) fetal calf serum. Jurkat cells were cultured in a humidified 5% CO2, 95% air atmosphere in a 1:1 mixture of Dulbecco's modified Eagle's medium (DMEM) and Ham's F12 medium containing 2 mM L-glutamine, 50 IU/ml penicillin, 50 μg/ml streptomycin, and 10% (v/v) fetal calf serum. […] [^125 I]-Labelling— Radiolabeling of Nanobodies with ^125I was performed using the Iodo-gen method (Pierce, Rockford, Ill.) according to the manufacturer's protocol. ^125I-labeled Nanobodies was separated from free iodine (>99%) using a Sephadex G-25 gel filtration column (Amersham Biosciences, Piscataway, N.J.). […] Competition Binding Assays— Membranes from HEK293T cells transiently expressing CXCR3 or CXCR4 were prepared 48 h after transfection as follows. Cells were washed and scraped from the cell culture dishes with ice-cold PBS containing 1 mm EDTA. The scraped cells were pelleted at 1500×g for 10 min at 4° C. The pellet was washed and then resuspended in ice-cold membrane buffer (15 mM Tris, pH 7.5, 1 mM EGTA, 0.3 mM EDTA, and 2 mM MgCl2). The cell suspension was homogenized by 10 strokes at 1200 rpm using a Teflon-glass homogenizer and rotor and further subjected to three freeze-thaw cycles using liquid nitrogen. Membranes were separated by centrifugation at 40,000 g for 25 min at 4° C. The membrane pellet was washed and resuspended in ice-cold Tris-sucrose buffer (20 mM Tris, pH 7.4, and 250 mM sucrose) and frozen in liquid nitrogen. The total protein was determined using a Bradford assay (Bio-Rad). […] Membranes were then harvested over polyethylenimine (0.5%)-treated Whatman GF/C filter plates and washed three times with ice cold binding buffer containing 500 mM NaCl. Plates were counted by liquid scintillation. Inositol Phosphate Accumulation Assay— 24 hours post transfection with pcDNA3.1-CXCR4 and pcDNA1-HA-mG {alpha} qi5 (see Verzijl et al, 2008 supra), 250.000 cells were seeded into 24-wells plates and labelled overnight using inositol-free minimal essential medium supplemented with 1 μCi myo-[2-^3H]-inositol. The next day, the cells were washed once to remove not incorporated myo-[2-^3H]-inositol. […] In agonist experiments, the cells were directly stimulated with test compounds and LiCl (10 mM) in assay buffer for 2 h at 37° C. The stimulation was stopped by aspirating the stimulation medium and adding ice-cold 10 mM formic acid. The accumulated inositol phosphates were isolated by anion exchange chromatography and counted by liquid scintillation. CRE Reporter Gene Assay— HEK239T cells were transfected with pCRE/β-galactosidase (Chen W, Shields T S, Stork P J S, Cone R D (1995) Anal Biochem 226:349-354) and plasmids (pcDEF3 or pcDNA3.1) encoding the indicated receptors. 40,000 transfected cells per well were seeded into 96 well plates and grown in DMEM supplemented with 10% fetal calf serum. The medium was replaced 32 h after transfection by serum-free DMEM supplemented with 0.5% bovine serum albumin and ligands as indicated. […] The β-galactosidase activity was determined by the measurement of absorption at 420 nm with a PowerwaveX340 plate reader (Bio-Tek Instruments Inc., Winooski, Vt.) after incubation with the assay buffer when the OD420 value for forskolin (3 μM) controls reached 0.4-0.6. Chemotaxis Assay— The chemotactic responsiveness of Jurkat 3D cells was assessed using ChemoTx™ plates (Receptor Technologies Ltd., Oxon, UK) in which a upper cell-containing compartment is separated from a lower chemoattractant-containing compartment by a polyvinylpyrollidone-free polycarbonate filter with 5-μm pores. Cells were harvested, washed and resuspended in RPMI containing 0.5% bovine serum albumin and then loaded to 150,000 cells per well in a volume of 25 μl into the upper compartment of the chemotaxis chamber.
# Sequence of CXCR4 (P61073 whole entry): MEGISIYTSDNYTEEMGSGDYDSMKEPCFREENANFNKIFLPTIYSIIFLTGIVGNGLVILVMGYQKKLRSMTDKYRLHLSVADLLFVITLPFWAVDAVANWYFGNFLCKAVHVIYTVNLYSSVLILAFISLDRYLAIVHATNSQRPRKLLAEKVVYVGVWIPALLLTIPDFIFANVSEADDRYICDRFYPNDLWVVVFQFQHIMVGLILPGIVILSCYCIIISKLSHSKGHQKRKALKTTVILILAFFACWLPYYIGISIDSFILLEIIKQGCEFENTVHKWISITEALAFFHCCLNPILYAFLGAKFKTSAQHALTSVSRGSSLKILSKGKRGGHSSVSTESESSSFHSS
molecule,measurement,value
"238D4: Nanobody (VHH) raised against human CXCR4, SEQ ID NO: 239 (protein, Nanobody, Nanobody constructs or fragments thereof) VHH: EVQLMESGGGLVQAGGSLRLSCAASGRTFNNYAMGWFRRAPGKEREFVAAITRSGVRSGVSAIYGDSVKDRFTISRDNAKNTLYLQMNSLKPEDTAVYTCAASAIGSGALRRFEYDYSGQGTQVTVSS",Displacem. (%) of [125I]-238D4 (maximal displacement),103 ± 1%
